Laboratory results from paper PMC11984735, “Dynamics of the adhesion complex of the human pathogens Mycoplasma pneumoniae and Mycoplasma genitalium” (PLOS Pathogens, 2025).

Biological target: T1, P1 adhesin ectodomain (residues Thr29-Asp1521), Mycoplasma pneumoniae (M. pneumoniae, UniProt P11311)
T1 construct: Adhesin P1 of Mycoplasma pneumoniae, gene MPN_141 (synthetic clone, Genscript), residues 29-1521; also called P1 (29-1521); whole P1 ectodomain; source: E. coli B834 (DE3), purified (HisTrap, Superdex 200)
T1 sequence (P11311 29-1521): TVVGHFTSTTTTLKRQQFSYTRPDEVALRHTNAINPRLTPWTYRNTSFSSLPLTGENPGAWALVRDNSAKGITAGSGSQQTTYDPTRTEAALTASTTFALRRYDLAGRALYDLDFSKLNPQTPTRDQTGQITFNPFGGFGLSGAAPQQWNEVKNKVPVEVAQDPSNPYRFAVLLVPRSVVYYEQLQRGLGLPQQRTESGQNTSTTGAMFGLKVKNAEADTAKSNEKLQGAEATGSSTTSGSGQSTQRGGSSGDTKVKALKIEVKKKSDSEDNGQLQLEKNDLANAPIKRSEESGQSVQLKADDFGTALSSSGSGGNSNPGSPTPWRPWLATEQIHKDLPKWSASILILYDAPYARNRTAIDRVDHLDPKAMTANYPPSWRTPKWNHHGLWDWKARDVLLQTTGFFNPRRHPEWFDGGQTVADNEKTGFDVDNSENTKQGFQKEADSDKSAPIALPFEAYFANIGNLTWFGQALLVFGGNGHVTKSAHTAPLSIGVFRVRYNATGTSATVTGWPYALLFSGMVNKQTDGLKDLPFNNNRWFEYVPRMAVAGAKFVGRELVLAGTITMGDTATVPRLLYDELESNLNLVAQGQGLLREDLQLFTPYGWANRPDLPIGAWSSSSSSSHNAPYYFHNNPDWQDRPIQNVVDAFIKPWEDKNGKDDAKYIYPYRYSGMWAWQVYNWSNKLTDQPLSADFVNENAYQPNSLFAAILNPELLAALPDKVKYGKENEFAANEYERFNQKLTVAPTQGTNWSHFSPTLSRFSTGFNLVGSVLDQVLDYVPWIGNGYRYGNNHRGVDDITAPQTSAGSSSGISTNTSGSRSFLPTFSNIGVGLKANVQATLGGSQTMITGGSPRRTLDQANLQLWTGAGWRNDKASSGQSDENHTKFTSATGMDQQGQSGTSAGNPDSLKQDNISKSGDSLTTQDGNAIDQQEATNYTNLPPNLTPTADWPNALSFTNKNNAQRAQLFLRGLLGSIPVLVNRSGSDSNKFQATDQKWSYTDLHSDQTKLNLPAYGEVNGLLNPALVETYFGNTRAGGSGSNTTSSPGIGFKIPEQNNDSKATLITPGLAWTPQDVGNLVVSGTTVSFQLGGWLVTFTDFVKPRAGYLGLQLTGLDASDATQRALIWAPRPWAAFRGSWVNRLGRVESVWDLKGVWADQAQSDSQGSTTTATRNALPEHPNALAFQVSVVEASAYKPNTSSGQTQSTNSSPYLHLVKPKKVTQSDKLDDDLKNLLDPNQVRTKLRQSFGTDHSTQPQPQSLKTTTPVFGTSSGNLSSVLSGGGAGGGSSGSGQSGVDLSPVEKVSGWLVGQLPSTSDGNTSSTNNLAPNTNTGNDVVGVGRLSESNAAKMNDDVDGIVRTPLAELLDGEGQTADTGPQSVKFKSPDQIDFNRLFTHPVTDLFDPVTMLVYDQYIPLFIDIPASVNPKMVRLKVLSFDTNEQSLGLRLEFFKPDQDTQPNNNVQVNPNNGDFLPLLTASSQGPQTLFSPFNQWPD
Experiment: SEC-MALS; proteins mixed in solution (Fab and P1 ectodomain in equimolecular amounts; Mab with C-domain constructs); Superdex 200 10/300 GL with MALS and refractive index detectors
Details: both partners purified

B1: Fab fragment of monoclonal antibody P1/MCA4, with light chain L1 (Fab, V domains shown)
VH: EVQLQQSGPELVKPGTSMKISCKASGYSFTGYTMNWVKQSHGKSLEWIGLINPYNGGTNYNQKFRGTATLTVDKSSSTAYMELLSLTSEDSAVYYCARSNYAYDLLMDYWGQGTSVTVSS
VL: DVLMTQTPLSLPVSLGDQASISCRFSQTIVHSNGATYLEWYLQRPGQSPKLLIYKVSNRFSGVPDRFSGSGSGTDFTLKISRVEAEDLGVYYCFQGSHVPWTFGGGTKLEIK
notes: LC600310 by the order of listing; here the papain fragment of the heavy chain; modelled in PDB 8ROR; light chain L1, the one seen in the cryo-EM map; The Fab preparation is a mixture of two Fabs with one heavy chain and two different light chains (roughly 70% for the most abundant); this molecule is the one with L1; also called Fab(P1/MCA4); P1/MCA4 Fab; source: papain digestion of monoclonal …
B1: binds.

B2: Fab fragment of monoclonal antibody P1/MCA4, with the second light chain (not L1) (Fab, V domains shown)
VH: EVQLQQSGPELVKPGTSMKISCKASGYSFTGYTMNWVKQSHGKSLEWIGLINPYNGGTNYNQKFRGTATLTVDKSSSTAYMELLSLTSEDSAVYYCARSNYAYDLLMDYWGQGTSVTVSS
VL: DVVMTQTPLTLSVTIGQPASISCKSSQSLLDSDGKTYLNCFLQRPGQSPNRLIYLVSRLDSGVPDRFTGSGSGTDFTLKISRVEAEDLGVYYCCQVTQWTFGGGTKLEIK
notes: LC600310 by the order of listing; papain fragment; the second of the two light chains found in P1/MCA4 (not L1); Present in the same Fab preparation as m1; also called Fab(P1/MCA4); P1/MCA4 Fab; source: papain digestion of monoclonal antibody P1/MCA4 (hybridoma), purified (HiTrap Protein G, Superdex 75)
B2: binds.
